This is an account of results in publication PMC13462943.

The target of this experiment is SAM. Nature of the experiment: native mass spectrometry. The conditions noted are these: protein and substrate concentrations 5 µM.

As to “GLP methyltransferase domain (aa 1001-1266), wild type (from UniProt Q9H9B1-1) C1073Y”, the other: relative abundance, 1x SAM bound (parent: 11) came to 18. Besides, where the note is “parent: 88”, the other: relative abundance, free protein stood at 80.
